Assay results taken from publication PMC6055799.

Molecular target: GFP-RTN1 (reticulon RTN1 fused to GFP; FRET donor) (Arabidopsis)
Experiment: FRET or BRET; FRET-FLIM (two-photon microscope): donor GFP-RTN1 and RFP-tagged acceptor coinfiltrated into N. tabacum leaf epidermal cells, measured after 48 h in low-mobility ER continuous with the nuclear envelope; donor lifetime compared with GFP-RTN1 alone

Molecule: AtLNP2-RFP (Arabidopsis Lunapark 2, splice variant AtLNP2.1, fused to RFP; FRET acceptor) (natural protein)
- reduction of the donor (GFP-RTN1) fluorescence lifetime: 0.2 ns

B1: AtLNP1-RFP (Arabidopsis Lunapark 1 fused to RFP; FRET acceptor) (natural protein)
chain: MAVGEKEHEGTVVESGGEKNDSAVVLSASGEKKTTKRKGLFSRLWNAIFRVRGDDFEKRLKNISKEEATVRNRMKRRSITRRNFIRNLIAFSVFFEVIAVSYAIMTTRDEDLDWKLRSFRILPMFLLPAVAFLLYSSLVGFWRMCDRRDQHTLEKLQAEMLGKINELKERTNYYITQQLIQRYDPDPAAKAAAATVLASKLGAESGLKVFVGDESQLEPTAGKNNAKHSGGLRNRKQTNTRGNSAETTPIHHSDNESNHSGTSERITGTEQNQQMVFEHYNPQEYAAHDGSWISRIAALLVGEDPSQSYALICGNCRMHNGLARKEDFPYITYYCPHCRALNKPKHSEEHSLIAPADTLPKVSLKPMESEVINSSSSTSERGNSPIPLLHTPEIVEEVPETAENETPN
- reduction of the donor (GFP-RTN1) fluorescence lifetime: 0.2 ns
